experiment: soluble on expression in E. coli; label from the status in PepcDB or PDB records

Soluble on expression in E. coli, not soluble:
MGSDKIHHHHHHMTRNANKNNKECEKCWIFDLNQFKMITNSILEENTLVLEINQNYEVSVLMDYDVFLENGILTFKDFVNDNSKSAQVLTGSLKTGILNKMSQSISEGLLNKTTNRRTYYITEPTPLIGHTAFGLIDRGTNVIQVRGLSGCNINCPFCSVDEGIHSKSRKNDYYVDKDYLVSEYEKIADFKGYKKLEAHLDGQGEPSLYYPLPDLVQNLNEINSKNNGIVSIQTNGVHLTEKLIDDLEVAGLHRINLSINAMDEKFSKGLSGSKNYDIEKIMKIAEYIKNSKIHLLIAPLLLPNYNDEEFKKVLDFAVELEQKNPQNTINPITNKKNPIVGPQLCLTYQFGRKIPKMRVWDFPKFYNLLDVYHKEYLKDGINVDLEVPLHGFFGSHGRKRLPCPFKLNETISVTVLMDGRVNGEVIGASKNRVIQIIDCKTDINKLIGKRVKVKVLRVKDNVIVGSMVK, MGSDKIHHHHHHMTRSVLVDLDAVLSIARLGSFRAAALDLGMSTTALSNAIAKLEQRLGVRLFNRTTRSVSLTDAGKTFAERVGPAMMDIHDAMLSVQSLQETPAGTLRINAFATAAREVMEPLILSFMQRYPQVHIDLVTEGRIVDIVAAGFDLGLRPADLVPADMIAVSLGLKRSNAVVASPDFLRIHGIPTVPADLYRFRCIRARLPNNALFRWKFEKDGDAMQIDVQGSITLDESSLVRIAAQNGVGLGYVMEADVREDIAAGRLVRVLEDWTPALAPLALYYPGRKNPPAAFSAFIQAARNFANGG, MGSDKIHHHHHHMTSKLAAVSHIEKIALGLRDQAHAVIKNILMMSDIPTQELQHAMKQLSHQGRVALHFHPDRIDNRGLTVVQGLLRDGIYKSQFETHISNGQLSPELGGPRDHWENQLFGNSYSGIKSRPKYGALDLGLCPLGPAPRFGSCYFLTHSQVLSRCTFSYMDSYRLPKEKGTLSCFDAILAALLSESFERCYALGRQPFKPRDIMAHMACEAKSSVAARFELPGLGNLDHYIEAQIHGDVSLADDIGYLVADPSFKGTETEEYFNQLCSDYQINLHWHNGLTLACDKVPTDFRGAAMPVLAKQIAIDEVIDAKTVGAEAARLQKQPSSWSERGSQAKKTQELKLLWHVLVRFGKPREDNFDNH, MGSDKIHHHHHHMTSSLQKLFTFDEFLDFLVTQPENIRYELHDGNIIQMPPPLGQHEQIVAFLTMILGYECLRLKLNYGIPKNATVKPENRTSGYYPDVLLINFSNLINEALWEKQSILSHPDSIPLVIEVVSTNWRDDYHKKLADYEEMGIQEYWIVDYAALGSKELIGDPKQPTITIYSLSDEGEYRGKQFRGDDRIESPTFSNLNLKVEQIFHCVIE, MGSDKIHHHHHHMTSTPGISDSLLSSMNGSGANNNTSAISETQDRFMKLLIAQMKNQDPLNPMDNAEVTSQMAQLSTVTGIEKMNASLSTFISSMQATQALQASSLIGNTVLVEGNSTYLAPAETEGESAAYLGVELPIGADKLTVNIKNGAGNVVKTITVTNQPAGISSLGWNGYGDDGTKLPDGRYTIEATATTGNSSVASTPLSYEQVMSVSTGSDGVKLNLSNLAAITTDQIKQIF, MGSDKIHHHHHHMTVEFDAARLGPILYYRGLEGDALQLAAMVMLPIGERPETLRTDAGDHAPTLLREIGRSAVWRYDFGLTPSCGSYRLGDQSYDVQTDLHGDMRIAFASCNGEEKGDLDRDQEERNRMWAHMCAEHRRAPFALLLQGGDQIYADEATEGHPLSEDWPDKAGRPRNAEELKDLADHLRLRFAERYVQALFGEAPSWIMARVPTLAIWDDHDICDGWGSLYRSKTHSEVGQCLYAVAREMYLLFQHAAVEGDIPDLFMDETGTSLSWQRALPGVKLLAPDLRAERGRRQVLGAYGWSAVEAMKPGSEHTFVISSVPLLGPRLSLVEGLMLMIPTMQKYEDDLRDQWQSRAHRKEWIRMLKQVIAWREEAPVTILSGEIHLATRAEMGPDETRVHQLVASGIAHRAPPQSYARSLGTLAGLGDAPVSGHPIRIHPLPGQSQRYTAERNYLELRRTHGKWHAVWHLEESGDTVPMVLE, MGSDKIHHHHHHMTVLYKGSLKQNNDPFHVTLLSKEHIEQILFLQNVVVEGLEDKSRLQPLSQEEFQYILEGNGMMIGAFIKNELIAFRALLVPPIDDEHLGLDIGLPESELHRVIYQEISNVHPNCRGNGMQKILATVIMDELQKENGKYDYVCCTVAPFNIPSLKDKFSQGMEIAALKEKYGGSMRYVFVKELREDKEKDWTEIKSVPMNNAGGQQALLSEGYRGYEMEKVDEDFVVKFGR, MGSDKIHHHHHHMTVNSIKLLLLPALLLLVSACSSPEPIISLSGSTMGTTYHIKVVNSDRLPEAQLLQAEIDMALEVVNDQMSTYRSDSELSKFNQLQVQQSVKVSADTIKVIEEGMRLYQETDGALDITLGPVVNLWGFGPDKRPTTIPTQAQIDNAKAKMGIKELSIKGLTLTKHNADLYVDLSSIAKGFGVDKIAAILDKYHVSGYLVEIGGELNVKGTKDDNTPWRVAVEQPTTEGQAVQQVIEPGTMSLATSGDYRNFYQENGERFSHLIDPRNGYPIKHQLASATVLHSSCMTADGYATAMMVLGTEASLALAKEKNLAIMLIEKQEQGYQVYYSDAFKSYVK, MGSDKIHHHHHHMTYAVGDIHGCFYALKSLLEKLPLSEEDELIFMGDYVDRGPNSREVIEFLIELSKHHRCIFLRGNHEEMLLNCVKNGSDCDLWFFNGARSTVESFGGVEEIKKFLPFFENTVYHYEKENYVFVHGGVRPGVSLEDQDPFDLVWIRDEFIYSENPLPGKIVVFGHTPFEEPFVSRDKIGIDTGCVYGGRLTALRVEDRKFFQVECANRRW, MGSDKIHHHHHHMVEPSKVVGLISDFGDSPYTGIMRAVIKSISRELQIIDIDHSIPSFSPLAGAYVVAHTYQWLPKGSVIVAVVDPGVGTSRYALAVETENYVFIGPDNGVLYPAAASDGIKRVYALREKDVNSLARMKTSSTAGTVKPWSISRTFHGRDVFAPAGALIAAGHASLEELGDEIEPERMKRASIDHVEKLGPSTFRATVVYIDKFGNVALSIRPKKLGINLSLYKSVVLGTHTTSNTIRMGKTFGDANPGELVAYENSFGHLEIAVNRGNAAKKLGLELEARVEIELLENSGPAPNGSRGVRNADLLGVSSRSLGETIW, MGSDKIHHHHHHMVETLAGLFDFEMDPQSGVALTRQLRDQLRRAIAAGSLASGRRLPSSRALALHLRVSRNTVCAAIEQLAMEGYLDVSRGRRPVVAPMPSAGLVAIGSDRPVSDGRSGMSQWAQRIDRSDWPFISEGRPTPFAPCVADARAFPHAIWGRCLRTATRYAVARTSTACNRPGLRRALLHHLVEYRGVNADAHQVFLMPTAQAAIALVARVLLDPGDLAWVESPGYGGARAAFEAAGATVQGIALDQSGMAFETSTDTPRLIFVTPAHQHPTGLLMPPARRQALLRFAARVGARIIEDDYDSEFHYEGRPVAALQGADDADSVFYVGTFSKSLHADIRVGYVVVPGHFVDVFAKAQRHTGQIVGATLQDALAEFIDDGHYAAHIRKTTRLYHARRDYLCDALKAVGSELTVSPPDGGMQVVARLGPLRDDREICRRLAEAGVTARPLSPHYCAQTGAQGLFLGFAAWNECEIDAGVRILARVIREPEPSK, MGSDKIHHHHHHMVGALAILMVGYSAAEAGGLRDLLEQGGLSAKVDCVAMADMLPGRLQQQEWDLVLTDDRPDLSAAQVLGLLARLGLDVPVIALVSRQDEQAAAHLIAAGVQDVLLKSDPVQLMATIRGCQRYIGHLRDLREAQLALERSEARFRAIASNLPGLVFQFVLESDGSVFFPYVSEGSRSLLGLSPDYLQKKPNSFARLIVATDVASYDQSLQDSCEHLSAWNWEGRIQAKGDMDVKWISLRATPRRTPRGAVLWDGIMLNITRNKQIELEIARSRAQLEELSAYSQKAKEQERTRIAREIHDDIGGTLTAIKCELVPCLDNSSRTPEFYRNKAEAVESLVDMVIDSTRRIALDLRPGVLDCGIVAAVQWQAREFNQRTGVSCTVACDYEDISLDGDLAVAIFRIFQEALTNIAKHANASEVRVKLAETGSQVYLEVTDNGCGITNPDMEKVNSFGIRSMRERCQQLGGQFHIQGGPLAGTEVLIRIPVNGQSTVGRESRLN
